Assay results taken from publication PMC7790415, “Loss of endocytosis-associated RabGEF1 causes aberrant morphogenesis and altered autophagy in photoreceptors leading to retinal degeneration” (PLoS Genetics, 2020).
Several values for one entry are separate records, joined by “and”; a condition that tells them apart may be missing. Equal entries are not always repeated.

Biological target: T1, RabGEF1 (mouse (endogenous in retina), UniProt Q9JM13 1-491)
T1 construct: RabGEF1 (Rabex-5), mouse, endogenous protein of retinal extracts, immunoprecipitated with anti-RabGEF1 antibody; Endogenous protein; also called Rabex-5; Rabex5; source: endogenous, mouse retina extract (control retina)
T1 sequence (Q9JM13 whole entry): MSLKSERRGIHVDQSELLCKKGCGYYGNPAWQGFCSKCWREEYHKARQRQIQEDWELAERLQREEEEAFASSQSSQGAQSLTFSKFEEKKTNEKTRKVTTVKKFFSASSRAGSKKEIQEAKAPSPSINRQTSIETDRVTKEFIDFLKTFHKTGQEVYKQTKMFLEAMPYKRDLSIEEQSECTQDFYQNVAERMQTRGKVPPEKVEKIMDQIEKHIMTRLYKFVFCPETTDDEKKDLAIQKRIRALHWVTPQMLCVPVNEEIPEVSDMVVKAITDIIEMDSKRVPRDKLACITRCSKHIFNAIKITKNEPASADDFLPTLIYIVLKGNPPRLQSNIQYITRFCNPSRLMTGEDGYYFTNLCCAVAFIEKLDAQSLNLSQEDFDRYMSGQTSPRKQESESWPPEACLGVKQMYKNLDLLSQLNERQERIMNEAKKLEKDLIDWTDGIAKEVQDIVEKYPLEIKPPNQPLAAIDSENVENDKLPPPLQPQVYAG
Assay: affinity purification with mass spectrometry; anti-RabGEF1 and IgG immunoprecipitates from control and Rabgef1-/- mouse retinal lysates; trypsin digest, LC-MS on Orbitrap Lumos (n = 2)
Details: partners not purified

B1: Rabaptin-5 (natural protein, mouse (endogenous in retina), UniProt O35551 1-862, looked up)
chain: MAQPGPAPQPDVSLQQRVAELEKINAEFLRAQQQLEQEFNQKRAKFKELYLAKEEDLKRQNAVLQAAQDDLGHLRTQLWEAQAEMENIKAIATVSENTKQEAIDEVKRQWREEVASLQAIMKETVRDYEHQFHLRLEQERAQWAQYRESAEREIADLRRRLSEGQEEENLENEMKKAQEDAEKLRSVVMPMEKEIAALKDKLTEAEDKIKELEASKVKELNHYLEAEKSCRTDLEMYVAVLNTQKSVLQEDAEKLRKELHEVCHLLEQERQQHNQLKHTWQKANDQFLESQRLLMRDMQRMEIVLTSEQLRQVEELKKKDQEEDEQQRVNKRKDNKKTDTEEEVKIPVVCALTQEESSTPLSNEEEHLDSTHGSVHSLDADLMLPSGDPFSKSDNDMFKDGLRRAQSTDSLGTSSSLQSKALGYNYKAKSAGNLDESDFGPLVGADSVSENFDTVSLGSLQMPSGFMLTKDQERAIKAMTPEQEETASLLSSVTQGMESAYVSPSGYRLVSETEWNLLQKEVHNAGNKLGRRCDMCSNYEKQLQGIQIQEAETRDQVKKLQLMLRQANDQLEKTMKEKQELEDFLKQSAEDSSHQISALVLRAQASEVLLEELQQSFSQAKRDVQEQMAVLMQSREQVSEELVRLQKDNDSLQGKHSLHVSLQLAEDFILPDTVEVLRELVLKYRENIVHVRTAADHMEEKLKAEILFLKEQIQAEQCLKENLEETLQLEIENCKEEIASISSLKAELERIKVEKGQLESTLREKSQQLESLQEMKVNLEEQLKKETAAKATVEQLMFEEKNKAQRLQTELDVSEQVQRDFVKLSQTLQVQLERIRQADSLERIRAILNDTKLTDINQLPET
notes: Rabaptin-5 (also known as Rabep1), mouse, endogenous protein of retinal extracts; Endogenous protein; also called Rabep1; source: endogenous, mouse retina extract (control retina)
stoichiometry N: 0.5 Rabaptin-5 per RabGEF1 (printed as RabGEF1:Rabaptin-5 2:1) and 2 Rabaptin-5 per RabGEF1 (printed as RabGEF1:Rabaptin-5 1:2)
